Experimental data from patent US20260183408A1, “POLYPEPTIDE AND USE THEREOF” (SHENZHEN CHENYANG BIOLOGICAL TECHNOLOGY CO., LTD, priority 2022, published 2026).

Assays:
[1] = target: T1, D2R/5-HT2CR complex (Homo sapiens, UniProt P28335); test: Co-immunoprecipitation / Western blotting of polypeptide-treated 293T cells; format: cell-based; conditions: 293T cells transfected with 5-HT2CR and D2R, in the presence of 5-HT2CR and D2R agonists, TAT as control (FIG. 6)
T1 construct: host or cells: human 293T cells
T1 sequence (P28335 33-458): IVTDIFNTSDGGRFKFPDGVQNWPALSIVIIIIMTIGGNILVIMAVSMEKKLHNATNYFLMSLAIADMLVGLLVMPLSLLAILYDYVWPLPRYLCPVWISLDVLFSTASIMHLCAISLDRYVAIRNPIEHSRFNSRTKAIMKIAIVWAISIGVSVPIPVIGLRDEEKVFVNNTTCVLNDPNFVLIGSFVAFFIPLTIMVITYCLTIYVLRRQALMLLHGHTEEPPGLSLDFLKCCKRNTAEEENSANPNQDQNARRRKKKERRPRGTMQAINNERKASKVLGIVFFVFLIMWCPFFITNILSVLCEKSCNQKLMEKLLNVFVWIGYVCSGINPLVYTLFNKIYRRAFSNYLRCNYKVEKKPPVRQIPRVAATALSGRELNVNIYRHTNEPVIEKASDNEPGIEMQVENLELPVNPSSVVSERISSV
Experimental: (§1) Co-immunoprecipitation was performed using protein samples (with 100-500 μg protein) from the hippocampal tissue of the Balb/c mice. Mouse monoclonal antibodies against both 5-HT2CR and D2R, D2R, or 5-HT2CR were used for precipitation with 25 μl of the slurry of protein A/G+agarose beads (SantaCruz Biotechnology, sc-2001).
(§2) Western blotting analysis after precipitation: Denatured (at 100° C. for 10 min) proteins were separated on an 8% SDS-PAGE gel, then transferred to a nitrocellulose membrane, which was then blocked with skim milk in TBST (Tris-buffered saline with 0.1% Tween 20). Next, incubation was carried out with the primary antibodies at 4° C. overnight. Finally, treatment with an HRP-conjugated secondary antibody were performed for 1 h, signals were detected using the ECL UltraSignal chemiluminescence kit (4A Biotech, cat. no. 4AW011-500), and the bands were analyzed for densities using the Image Lab software.
Next, the 293T cells were treated with TAT-D2R-KL in the presence of 5-HT2CR and D2R agonists, while treatment with TAT was used as a control. The specific process was shown in FIG. 5, where the human 293T cell line was cultured in a high-glucose modified Eagle's medium (DMEM) supplemented with 10% fetal bovine serum (FBS). The cells were maintained in an atmosphere of 95% air and 5% carbon dioxide in an incubator at 37° C. […]

[2] = system: SPS mice; test: Fear conditioning, safety learning and recall tests (freezing level); format: in vivo; conditions: treated for 1.5 h, 3 nM intraperitoneally, 100 μl/10 g mouse (FIG. 7 right)
Experimental: The SPS model was established with male Balb/c mice. The modified SPS protocol was used to comprise a series of stress exposure: 2 hours of restraint stress (inside a 50-mL plastic tube having several air holes), 3 min of rest, 12 min of forced swimming in a transparent glass tank (at about 24° C.), 15 min of rest (drying under a warming lamp), 20 min of predator (rat) odor exposure, followed by ether anesthesia (until the mice completely lost consciousness). Thereafter, the mice are transferred back to their cages with fresh bedding. The control mice were housed in groups and received no stress exposure. After the model establishment, all mice were raised undisturbed for one week.
The fear conditioning, safety learning, and recall tests were carried out in two contexts (the fear conditioning and safety learning tests were carried out in context A; and the recall test was carried out in context B). The shapes and smells provided in contexts A and B were different. Indoor floors were cleaned with 1% acetic acid or 75% ethanol prior to testing. […] After the experiment was completed, the freezing level was manually calculated based on the recorded video. The criterion for a freezing behavior is that if no movement other than normal breathing of a mouse was detected within 2 seconds, then the mouse was considered freezing. […]

[3] = target: T2, D2R/5-HT2CR complex (Mus musculus, UniProt P34968); test: Co-immunoprecipitation of hippocampal tissue of polypeptide-treated SPS mice; format: in vivo; conditions: intraperitoneal, 1.5 h (FIG. 7 left)
T2 construct: from tissue
T2 sequence (P34968 33-459): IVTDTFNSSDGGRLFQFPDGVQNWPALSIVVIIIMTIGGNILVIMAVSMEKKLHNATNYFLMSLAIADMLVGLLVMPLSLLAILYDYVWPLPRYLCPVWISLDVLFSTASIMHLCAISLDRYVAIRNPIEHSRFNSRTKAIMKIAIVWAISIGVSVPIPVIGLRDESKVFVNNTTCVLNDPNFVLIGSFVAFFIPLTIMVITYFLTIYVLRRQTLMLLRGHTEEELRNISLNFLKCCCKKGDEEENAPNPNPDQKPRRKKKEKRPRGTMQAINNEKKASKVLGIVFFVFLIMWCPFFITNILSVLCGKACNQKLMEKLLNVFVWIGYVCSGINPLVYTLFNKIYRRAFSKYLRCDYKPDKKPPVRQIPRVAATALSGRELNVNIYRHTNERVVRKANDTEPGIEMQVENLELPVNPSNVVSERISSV
Experimental: as §1, §2
The SPS model was established with male Balb/c mice. […]
The fear conditioning, safety learning, and recall tests were carried out in two contexts (the fear conditioning and safety learning tests were carried out in context A; and the recall test was carried out in context B). […] After the experiment was completed, the freezing level was manually calculated based on the recorded video. […]

TAT-D2R-KL: C-terminus of the KL (K226-L240) region of D2R fused to the transduction domain of HIV-1 Tat protein (SEQ ID NO: 5)
interaction between 5-HT2CR and D2R [1]: significantly reduced
freezing level [2]: reduced
interaction between 5-HT2CR and D2R [3]: decrease
